These results are taken from US20230331848A1 (BIOSION, published 2023).

In experiment [1] the target is T1, cynomolgus PD-1-his protein (Cat#:PD1-05223, Acro biosystems Inc.) (cynomolgus, UniProt B0LAJ3 25-170).
T1 construct: Bought protein used in Biacore and indirect ELISA; also called monkey PD-1; Cyno PD-1
Nature of the experiment: indirect ELISA on coated cynomolgus PD-1-his; unit from the axis 'Con of mAb, nM.'. The procedure: (§1) Briefly, 96-well micro plates were coated with 100 μl 2 μg/ml mouse PD-1-his (Cat#:50124-M08H, Sino Biological Inc) or 2 μg,/ml cynomolgus PD-1-his (Cat#:PD1-05223, Acro biosystems Inc.) in carbonate/bicarbonate buffer (pH 9.6) for 2 hours at 37° C. Plates were washed once with wash buffer (PBST, PBS+0.05% Tween-20) and then blocked with 200 μl blocking buffer (5% w/v non-fatty milk in PBST) for 2 hours at 37° C. […] ELISA plates were washed 4 times and incubated with Peroxidase AffiniPure goat anti-mouse IgG, Fcγ Fragment Specific (1:5000 dilution in PBST buffer, Cat#:115-035-071, Jackson ImmunoResearch Laboratories, Inc., 100 μl/well) or Peroxidase AffiniPure F(ab′)₂ Fragment Goat Anti-Human IgG, Fcγ fragment specific (Cat#:109-036-098, Jackson ImmunoResearch, for the controls) for 40 minutes at 37° C. After a final wash, plates were incubated with 100 μl/well TMB (Cat#:TMB-S-002, innoreagents) at room temperature. The reaction was stopped 3-10 minutes later with 50 μl/well 1M H₂SO₄, and the absorbance was read on a microplate reader using dual wavelength mode with 450 nm for TMB and 630 nm as the reference wavelength. Then the OD (450-630) values were plotted against antibody concentrations. Data was analyzed using GraphPad Prism software and EC₅₀ values were reported.
For orientation: In an ELISA, binding on a coated surface is turned into a signal by an enzyme label.

Experiment [2] deals with T2, recombinant mouse PD-1-his protein (Cat#:50124-M08H, Sino Biological Inc) (mouse, UniProt Q02242 25-167).
T2 construct: Bought protein used in Biacore and indirect ELISA; not shown: his tag
T2 sequence (looked up): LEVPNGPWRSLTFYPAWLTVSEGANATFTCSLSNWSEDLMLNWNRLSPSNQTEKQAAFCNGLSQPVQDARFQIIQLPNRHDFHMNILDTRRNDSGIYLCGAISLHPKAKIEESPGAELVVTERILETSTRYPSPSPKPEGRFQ
Nature of the experiment: indirect ELISA on coated mouse PD-1-his. The procedure: as §1

Experiment [3] deals with T2, recombinant mouse PD-1-his protein …. Nature of the experiment: SPR (Biacore T200), antibody captured, PD-1-his in flow, 1:1 fit. From the text: The purified anti-PD-1 mouse monoclonal antibodies (mAbs) generated in Example 1 were characterized for binding affinities and binding kinetics by Biacore T200 system (GE healthcare, Pittsburgh, Pa., USA).
Briefly, Goat-Anti-Mouse IgG (Cat#: BR100838, GE healthcare, Mouse Antibody Capture Kit) was covalently linked to a CMS chip (carboxy methyl dextran coated chip, Cat#: BR100530, GE healthcare) via primary amines using a standard amine coupling kit (GE healthcare, Pittsburgh, Pa., USA) provided by Biacore. Un-reacted moieties on the biosensor surface were blocked with ethanolamine. A Protein G chip (Cat#:29-1793-15, GE healthcare) was used for the positive controls affinity determination. The anti-PD-1 antibodies of the disclosure and the two positive controls at the concentration of 2 μg/ml were respectively flowed onto the chip at a flow rate of 10 μl/min. Then, serially diluted recombinant human PD-1-his protein (Cat#:10377-H08H, Sino biological Inc.), cynomolgus PD-1-his protein (Cat#:PD1-05223, Acro biosystems Inc.) and recombinant mouse PD-1-his protein (Cat#:50124-M08H, Sino Biological Inc), 2-fold dilution in HBS-EP⁺ buffer (provided by Biacore) starting at 200 nM, were respecitvely flowed onto the chip at a flow rate of 30 μl/min. The antigen-antibody association kinetics was followed for 2 minutes and the dissociation kinetics was followed for 10 minutes. The association and dissociation curves were fit to a 1:1 Langmuir binding model using Biacore evaluation software.
(Surface plasmon resonance follows binding to a sensor surface in real time, without labels.)

The target in experiment [4] is T3, full length mouse PD-1 expressed on 293F-mouse PD-1 cells (mouse, UniProt Q02242 25-288).
T3 construct: also called cell surface mouse PD-1
T3 sequence: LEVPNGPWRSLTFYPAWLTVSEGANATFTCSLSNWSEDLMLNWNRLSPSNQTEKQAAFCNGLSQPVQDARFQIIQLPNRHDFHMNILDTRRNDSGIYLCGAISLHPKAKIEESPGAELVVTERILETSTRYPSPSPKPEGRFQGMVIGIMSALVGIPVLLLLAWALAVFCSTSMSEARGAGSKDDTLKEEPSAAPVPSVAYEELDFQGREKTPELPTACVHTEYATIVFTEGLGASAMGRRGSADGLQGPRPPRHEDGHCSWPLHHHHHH
Nature of the experiment: cell-based blocking FACS: 293F-mouse PD-1 cells incubated with antibody, then with mouse PD-L1-hFc (blocked ligand), detected with anti-human IgG Fc-PE; unit from the axis 'Con of mAb, nM.'. The procedure:
Briefly, 293F-mouse PD-1 cells were harvested from cell culture flasks, washed twice and re-suspended in PBS containing 2% v/v Fetal Bovine Serum (FACS buffer). Then, 1×10⁵ cells per well in 96 well-plates were incubated in 100 μL of the anti-PD-1 antibodies or controls at various concentrations (starting at 80 nM with a 3-fold serial dilution) in FACS buffer for 40 minutes at 4° C. […] The plates were washed twice with FACS buffer, and then added and incubated for 40 minutes at 4° C. in dark with 100 μl/well R-Phycoerythrin AffiniPure Goat Anti-Human IgG, Fcγ fragment specific (1:1000 dilution in FACS buffer, Cat#:109-115-098, Jackson Immunoresearch). Cells were washed twice and re-suspended in FACS buffer. Fluorescence was measured using a Becton Dickinson FACS Canto II-HTS equipment. Data was analyzed using Graphpad Prism software and IC₅₀ values were reported.

Experiment [5] concerns the target T4, in house made human PD-1-Fc protein (human, biotin-labeled (sites not given)).
T4 construct: also called biotin-labeled human PD-1-Fc
Nature of the experiment: blocking FACS: biotin human PD-1-Fc + antibody on GS-C2/PD-L1 cells (competitor: cell-surface human PD-L1).

B1: mouse anti-PD-1 monoclonal antibody E1G5D1H1 (antibody, V domains shown)
VH: EVQLVESGGGLVKPGGSLKLSCAASGFTFSDFYMYWVRQTPEKRLEWVATISNSGTQTYYLDSVKGRFTISRDNAKNNLYLQMSSLKSEDTAMYYCARDYYRYDSWYFDVWGAGTTVTVSS
VL: DIVLTQSPASLAVSQGQRATISCRASESVDFYGTSLMQWFQLKPGQPPKLLIYAASNVESGVPARFSGSGSGTNFSLNIHPVEEDDIAMYFCQQSRKVPWTFGGGTNLEIK
notes: Hybridoma-derived mouse mAb; also called EIG5D1H1; E1G5DIH1
Molecule B1 had an EC50 in experiment [1] of 0.142 nM. Moreover, the binding result in experiment [2] is given as “no binding (tested: 66.7 nM)”.

B2: mouse anti-PD-1 monoclonal antibody E1A9C8A7 (antibody, V domains shown)
VH: QVQLQQSGAEVVRPGVSVRISCKGSGYTFSDYVMHWMKQSHGESLEWIGVISTYHIPAVYNQKFKGKATMTVDKSSSTVYLELARLTSEDSAIYYCAREVYGDSYYFDVWGAGTTVTVSS
VL: DVLMTQIPLSLPVSLGDQVSISCRSSQSIVHSNGNTYLEWYLQKPGQSPKLLIYKVSNRFSGVPDRFSGSGSGTDFTLKISRVEAEDLGVYYCFQGSHVPYTFGGGTKLEIK
notes: Hybridoma-derived mouse mAb purified on Protein A; also called Mouse E1A9C8A7
With B2, in experiment [3], the Kd stood at 150 nM, the koff is 0.031 s⁻¹ and the kon was determined as 207000 M⁻¹ s⁻¹. The molecule also registered an IC50 in experiment [4] of 6.86 nM. In experiment [5], the IC50 is 0.42 nM.

B3: mouse anti-PD-1 monoclonal antibody E2G4E10B7 (antibody, V domains shown)
VH: QVQLQQSGAELVRPGVSVKISCKGSGYTFTDYVMHWVRQSHAKSLEWIGVISTHFGDGVYNQKFKGKATMTVDKSSSTAYMELARLTSEDSAIYYCAREVYGDSWYFDVWGAGTTVTVSS
VL: DVLMTQTPLSLPVSLGDQASISCRSSQSLVHSDGNTYLEWYLQKPGQSPKLLIYKVSNRFSGVPDRFSGSGSGTDFTLKISRLEAEDLGVYYCFQGSHVPYTFGGGTKLEIK
notes: Hybridoma-derived mouse mAb; also called Mouse E2G4E10B7
As for B3, in experiment [3], the Kd amounted to 29.8 nM, the off-rate (koff) was found to be 0.00553 s⁻¹ and the kon turned out to be 186000 M⁻¹ s⁻¹. Besides, the IC50 in experiment [4] is 2.49 nM.

The EC50 is the concentration giving half of the maximal effect. Low readings indicate an effect from little substance, high ones a need for much substance. A word on the Kd: it is the concentration at which binding is half-saturated. In general, koff refers to the rate constant with which the complex falls apart. By kon is commonly meant the second-order rate constant of association. As usually defined, the IC50 is the concentration that inhibits the measured activity by half.
